Usually Kd stands for the constant that tells how readily two partners part at equilibrium. The low end stands for a tighter complex, the high end for a looser complex. What is called koff is the rate constant with which the complex falls apart. High values mean fast dissociation, low ones slow dissociation. As usually defined, the kon is a measure of how fast the partners come together. A high value points to fast association.

Assay in all cases: SPR
In general terms: Surface plasmon resonance follows binding to a sensor surface in real time, without labels.

The target in experiment [1] is T1, Evasin-1 (Rhipicephalus sanguineus, UniProt P0C8E7 21-114).
T1 sequence (looked up): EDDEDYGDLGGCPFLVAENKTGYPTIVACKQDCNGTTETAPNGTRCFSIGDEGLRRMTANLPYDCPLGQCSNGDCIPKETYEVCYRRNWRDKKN

Experiment [2] has as its target T2, CXCL1 (human, UniProt P09341 35-107).
T2 sequence (looked up): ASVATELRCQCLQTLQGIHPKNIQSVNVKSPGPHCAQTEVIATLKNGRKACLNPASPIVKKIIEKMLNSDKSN

Experiment [3] deals with T3, KC (mouse, UniProt P12850 25-96).
T3 sequence (looked up): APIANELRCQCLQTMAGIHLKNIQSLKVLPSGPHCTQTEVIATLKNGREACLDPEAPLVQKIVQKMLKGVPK

The target of experiment [4] is T4, MIP-2 (mouse, UniProt P10889 28-100).
T4 sequence (looked up): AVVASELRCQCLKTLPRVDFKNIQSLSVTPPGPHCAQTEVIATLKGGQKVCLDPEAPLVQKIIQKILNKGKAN

B1: CCL4 (ligand, human, UniProt P13236 24-92, looked up)
chain: APMGSDPPTACCFSYTARKLPRNFVVDYYETSSLCSQPAVVFQTKRSKQVCADPSESWVQEYVYDLELN
Take B1: in experiment [1], the dissociation constant Kd amounted to 0.51 nM, the koff turned out to be 0.0022 ± 0.18 s⁻¹ and the kon was 4.29e+06 ± 2.58 M⁻¹ s⁻¹.

B2: murine MIP-1α (ligand, mouse, UniProt P10855 24-92, looked up)
chain: APYGADTPTACCFSYSRKIPRQFIVDYFETSSLCSQPGVIFLTKRNRQICADSKETWVQEYITDLELNA
In experiment [1], B2 gave a dissociation constant Kd of 0.08 nM, an off-rate constant (koff) of 0.00118 ± 1.07 s⁻¹ and an association rate constant (kon) of 1.56e+07 ± 16 M⁻¹ s⁻¹.

B3: Evasin-3 (HEK) (natural protein, Rhipicephalus sanguineus, UniProt P0C8E8 21-86, looked up)
chain: LVSTIESRTSGDGADNFDVVSCNKNCTSGQNECPEGCFCGLLGQNKKGHCYKIIGNLSGEPPVVRR
modifications: also: extensively glycosylated
Consider B3, for which, in experiment [2], the equilibrium dissociation constant (Kd) turned out to be 0.34 nM, the off-rate (koff) was determined as 0.00142 ± 0.36 s⁻¹ and the kon is 3.95e+06 ± 4.23 M⁻¹ s⁻¹. In experiment [3], this molecule yielded a Kd of 2.25 nM, an off-rate (koff) of 0.00144 ± 0.35 s⁻¹ and a kon of 640000 ± 0.58 M⁻¹ s⁻¹. In addition, in experiment [4], the Kd came out at 0.4 nM, the koff is 0.00033 ± 0.11 s⁻¹ and the on-rate constant (kon) amounted to 790000 ± 0.9 M⁻¹ s⁻¹.

B4: Evasin-3 (E. coli) (natural protein, Rhipicephalus sanguineus, UniProt P0C8E8 21-86, looked up)
chain: LVSTIESRTSGDGADNFDVVSCNKNCTSGQNECPEGCFCGLLGQNKKGHCYKIIGNLSGEPPVVRR
In experiment [2], B4 came in with a Kd of 0.85 nM, a koff of 0.00222 ± 0.49 s⁻¹ and a kon of 2.61e+06 ± 0.69 M⁻¹ s⁻¹. Besides, in experiment [3], the Kd is 5.78 nM, the off-rate constant (koff) was 0.00185 ± 0.43 s⁻¹ and the kon is 320000 ± 0.17 M⁻¹ s⁻¹. Also, in experiment [4], the dissociation constant (Kd) worked out at 0.64 nM, the koff is 0.00065 ± 0.25 s⁻¹ and the kon stood at 1.02e+06 ± 0.56 M⁻¹ s⁻¹.

B5: CCL3 (ligand, human, UniProt P10147 24-92, looked up)
chain: SLAADTPTACCFSYTSRQIPQNFIADYFETSSQCSKPGVIFLTKRSRQVCADPSEEWVQKYVSDLELSA
In experiment [1], B5 displayed an equilibrium dissociation constant (Kd) of 0.12 nM, a koff of 0.00243 ± 0.61 s⁻¹ and an on-rate constant (kon) of 1.38e+07 ± 3.54 M⁻¹ s⁻¹.

B6: CCL3L1 (ligand, human, UniProt P16619 24-93, looked up)
chain: APLAADTPTACCFSYTSRQIPQNFIADYFETSSQCSKPSVIFLTKRGRQVCADPSEEWVQKYVSDLELSA
In experiment [1], B6 returned a Kd of 0.05 nM, an off-rate (koff) of 0.00067 ± 0.13 s⁻¹ and an association rate constant (kon) of 1.32e+07 ± 2.9 M⁻¹ s⁻¹.

B7: murine MIP-1β (ligand, mouse, UniProt P14097 24-92, looked up)
chain: APMGSDPPTSCCFSYTSRQLHRSFVMDYYETSSLCSKPAVVFLTKRGRQICANPSEPWVTEYMSDLELN
In experiment [1], B7 displayed a Kd of 0.15 nM, a koff of 0.00058 ± 0.12 s⁻¹ and a kon of 3.84e+06 ± 1.42 M⁻¹ s⁻¹.

For the origin of these results see paper PMC2526197 (The Journal of Experimental Medicine, 2008).
